In PMC2553570:
Like-named read-outs stand apart in the source and are kept apart here.

Key:
Assay in all cases: EMSA
Ku70/80 wild-type [1] = biological target: T1, Ku70/80 wild-type (human, UniProt P12956;P13010 1-609;1-732)
Ku70DM/80TM [2] = biological target: T2, Ku70DM/80TM (human, UniProt P12956;P13010 1-609;1-732, K357A;K358A;K233A;K238A;K239A)
Ku70DM/80DM [3] = biological target: T3, Ku70DM/80DM (human, UniProt P12956;P13010 1-609;1-732, K357A;K358A;K238A;K239A)
Ku70DM/80 [4] = biological target: T4, Ku70DM/80 (human, UniProt P12956;P13010 1-609;1-732, K358A;Ku70:K357A)
T4 sequence (P12956 whole entry K358A, chain 1 of 2): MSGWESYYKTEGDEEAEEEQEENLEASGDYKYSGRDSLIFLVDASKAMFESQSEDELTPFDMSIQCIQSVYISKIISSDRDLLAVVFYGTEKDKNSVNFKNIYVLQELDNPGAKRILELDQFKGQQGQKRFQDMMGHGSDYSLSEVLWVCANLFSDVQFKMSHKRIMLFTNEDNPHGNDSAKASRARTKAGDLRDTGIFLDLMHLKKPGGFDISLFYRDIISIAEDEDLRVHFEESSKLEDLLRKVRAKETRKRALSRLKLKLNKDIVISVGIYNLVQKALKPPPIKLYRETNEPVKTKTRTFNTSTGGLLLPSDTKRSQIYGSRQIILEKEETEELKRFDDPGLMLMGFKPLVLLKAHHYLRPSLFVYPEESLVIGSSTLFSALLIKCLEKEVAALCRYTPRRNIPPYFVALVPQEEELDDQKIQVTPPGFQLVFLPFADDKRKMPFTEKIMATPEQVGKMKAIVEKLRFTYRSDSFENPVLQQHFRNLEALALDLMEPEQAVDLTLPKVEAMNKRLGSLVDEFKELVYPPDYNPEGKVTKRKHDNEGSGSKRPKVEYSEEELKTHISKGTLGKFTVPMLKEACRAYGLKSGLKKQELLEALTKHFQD
T4 sequence (P13010 whole entry, stated change not applied, chain 2 of 2): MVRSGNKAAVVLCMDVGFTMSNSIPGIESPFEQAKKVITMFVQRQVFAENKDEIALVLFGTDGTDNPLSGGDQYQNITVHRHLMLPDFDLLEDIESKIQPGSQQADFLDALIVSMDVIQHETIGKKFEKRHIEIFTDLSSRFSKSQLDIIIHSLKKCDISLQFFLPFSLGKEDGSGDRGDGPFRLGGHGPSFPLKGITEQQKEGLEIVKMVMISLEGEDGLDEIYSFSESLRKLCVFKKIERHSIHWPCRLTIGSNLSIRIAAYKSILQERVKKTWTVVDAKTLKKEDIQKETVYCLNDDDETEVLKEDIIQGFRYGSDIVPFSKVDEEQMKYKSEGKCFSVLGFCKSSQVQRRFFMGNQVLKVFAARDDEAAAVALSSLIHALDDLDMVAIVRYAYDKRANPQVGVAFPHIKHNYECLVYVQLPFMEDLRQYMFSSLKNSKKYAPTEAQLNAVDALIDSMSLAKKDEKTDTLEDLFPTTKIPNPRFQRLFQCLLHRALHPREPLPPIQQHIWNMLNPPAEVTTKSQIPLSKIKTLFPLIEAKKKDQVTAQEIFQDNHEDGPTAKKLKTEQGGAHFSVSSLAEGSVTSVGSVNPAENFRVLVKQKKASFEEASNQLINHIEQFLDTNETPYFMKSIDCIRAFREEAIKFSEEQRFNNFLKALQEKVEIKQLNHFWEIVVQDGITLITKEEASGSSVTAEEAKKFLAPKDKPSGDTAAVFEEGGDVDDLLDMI

Ku70/80TM [5] = biological target: T5, Ku70/80TM (human, UniProt P12956;P13010 1-609;1-732, K238A;K239A;Ku80:K233A)
T5 sequence (P12956 whole entry, stated change not applied, chain 1 of 2): as the sequence (P12956 whole entry K358A, chain 1 of 2) above, with A358K counted along it
T5 sequence (P13010 whole entry K238A/K239A, chain 2 of 2): as the sequence (P13010 whole entry, stated change not applied, chain 2 of 2) above, with K238A, K239A counted along it

Ku70DM/80TM [6] = biological target: T2, Ku70DM/80TM; remark: listed apart in the source
Ku70DM/80DM [7] = biological target: T3, Ku70DM/80DM; remark: listed apart in the source
Ku70DM/80 [8] = biological target: T4, Ku70DM/80; remark: listed apart in the source
Ku70/80DM = Ku70/80DM (human, UniProt P12956;P13010 1-609;1-732, K239A;Ku80:K238A)
Ku70/80DM, sequence (P12956 whole entry, stated change not applied, chain 1 of 2): as the sequence (P12956 whole entry K358A, chain 1 of 2) above, with A358K counted along it
Ku70/80DM, sequence (P13010 whole entry K239A, chain 2 of 2): as the sequence (P13010 whole entry, stated change not applied, chain 2 of 2) above, with K239A counted along it

Ku70/80TM [9] = biological target: T5, Ku70/80TM; remark: listed apart in the source
Ku70/80 wild-type [10] = biological target: T1, Ku70/80 wild-type; remark: listed apart in the source

Measured: binding result

T1 sequence (P12956 whole entry, chain 1 of 2): as the sequence (P12956 whole entry K358A, chain 1 of 2) above, with A358K counted along it
T1 sequence (P13010 whole entry, chain 2 of 2): as the sequence (P13010 whole entry, stated change not applied, chain 2 of 2) above
T2 sequence (P12956 whole entry K357A/K358A, chain 1 of 2): as the sequence (P12956 whole entry K358A, chain 1 of 2) above, with K357A counted along it
T2 sequence (P13010 whole entry K233A/K238A/K239A, chain 2 of 2): as the sequence (P13010 whole entry, stated change not applied, chain 2 of 2) above, with K233A, K238A, K239A counted along it
T3 sequence (P12956 whole entry K357A/K358A, chain 1 of 2): as the sequence (P12956 whole entry K358A, chain 1 of 2) above, with K357A counted along it
T3 sequence (P13010 whole entry K238A/K239A, chain 2 of 2): as the sequence (P13010 whole entry, stated change not applied, chain 2 of 2) above, with K238A, K239A counted along it

B1: one-Ku duplex with unpaired region (dsDNA)
DNA 1: GTTTTTAGTTTATTGGGCGCG
DNA 2: CGCGCCCAGCTTTCCCAGCTAATAAACTAAAAAC
binds: Ku70/80 wild-type [1] | Ku70DM/80TM [2] | Ku70DM/80DM [3] | Ku70DM/80 [4] | Ku70/80TM [5]

B2: 48-bp duplex (two-Ku) (dsDNA)
DNA 1: CTGAGAAAACTGTGCGTCTTCGCGGCAATTGAGAGGCATTCCATTCAC
DNA 2: GTGAATGGAATGCCTCTCAATTGCCGCGAAGACGCACAGTTTTCTCAG
binds: Ku70DM/80TM [6] | Ku70DM/80DM [7] | Ku70DM/80 [8] | Ku70/80DM | Ku70/80TM [9] | Ku70/80 wild-type [10]
